# Test results from publication PMC4775417 (Structure (London, England : 1993), 2016).
# B1: His-tagged AIRAPL tUIM (residues 188-240), wild type (domain or fragment, mouse, UniProt Q91X58 188-240, looked up)
# chain: PVIALQNGLSEDEALQRALELSLAEAKPQVLSSQEEDDLALAQALSASEAEYQ
# Target: Met1-linked tri-ubiquitin chain (UniProt P0CG48 1-76; P0CG48 1-76; P0CG48 1-76)
# Assay: SPR
# Met1-linked tri-ubiquitin chain, sequence (P0CG48 1-228, one chain of several): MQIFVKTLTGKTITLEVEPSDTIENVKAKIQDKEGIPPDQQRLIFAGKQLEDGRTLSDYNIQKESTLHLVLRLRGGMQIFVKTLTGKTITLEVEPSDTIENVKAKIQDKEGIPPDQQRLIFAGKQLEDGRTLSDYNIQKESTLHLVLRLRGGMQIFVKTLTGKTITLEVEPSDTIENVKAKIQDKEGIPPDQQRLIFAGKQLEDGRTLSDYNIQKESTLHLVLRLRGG
binder,measurement,value
B1,binding result,binds
